The values that follow come from US20050032245A1 (Harvard, published 2005).

Test [1] addresses T1, MBP-UL42Δ340 (truncated UL42 processivity subunit of HSV DNA polymerase as maltose binding protein fusion) (herpes simplex virus, UniProt P10226 1-339, N-terminal MBP fusion, not carried in the letters).
T1 construct: Expressed in E. coli BL21(de3)pLysS and purified over amylose; also called wt UL42; HSV MBP-UL42
T1 sequence: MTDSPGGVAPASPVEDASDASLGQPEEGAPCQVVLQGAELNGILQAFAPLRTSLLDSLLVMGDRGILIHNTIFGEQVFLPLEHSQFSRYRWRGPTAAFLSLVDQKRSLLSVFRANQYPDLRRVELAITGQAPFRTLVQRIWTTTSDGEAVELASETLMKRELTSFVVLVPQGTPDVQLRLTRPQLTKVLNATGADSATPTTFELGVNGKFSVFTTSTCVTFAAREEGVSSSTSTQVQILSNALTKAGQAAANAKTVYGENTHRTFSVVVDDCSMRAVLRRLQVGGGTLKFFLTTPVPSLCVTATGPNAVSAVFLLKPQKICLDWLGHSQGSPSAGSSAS
Briefly: fluorescence polarization competition; peptide A displaces labeled peptide E from 7 µM UL42, Hill equation. (In general: Polarisation of emitted light reports the rotation of a fluorescent probe.)

Test [2] addresses T1, MBP-UL42Δ340 (truncated UL42 …). The test is described as follows: fluorescence polarization; MBP-UL42 titrated (1 to 50 µM) into 1 nM labeled peptide, Hofstee transformation.

Oregon Green 514 = pentafluorofluorescein derivative

B1: peptide A (36-mer derived from the C-terminus of HSV Pol) (peptide)
peptide: DDVAARLRTAGFGAVGAGATAEETRRMLHRAFDTLA
notes: also called 36-mer peptide A; unlabeled peptide A
For orientation: IC50 means the concentration that gives 50% inhibition. A low value points to greater potency in that assay. In turn, B1 yielded an IC50 in test [1] of roughly 6 µM.

B2: Oregon Green 514-labeled peptide E (18 C-terminal amino acids of HSV Pol) (peptide)
peptide: {Oregon Green 514}-ATAEETRRMLHRAFDTLA-NH2
notes: also called Oregon Green-peptide E; labeled tracer
Usually Kd stands for the concentration at which binding is half-saturated. In turn, B2 gave a Kd in test [2] of 5 µM.
